Reference: patent US20250360126

Test system: T1, NPM2 (embryonic NPM1 paralog)
T1 sequence (Q86SE8 1-214, species assumed, looked up): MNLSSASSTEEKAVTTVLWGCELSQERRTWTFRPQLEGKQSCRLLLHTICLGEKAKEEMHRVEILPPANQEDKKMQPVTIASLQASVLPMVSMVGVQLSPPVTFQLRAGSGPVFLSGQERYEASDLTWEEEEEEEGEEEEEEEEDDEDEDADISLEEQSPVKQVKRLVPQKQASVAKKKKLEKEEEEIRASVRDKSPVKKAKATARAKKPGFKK

B1: CCP5 (cytosolic carboxypeptidase-like 5) (enzyme, UniProt Q8NDL9 1-886, looked up, species assumed)
Cytosolic carboxypeptidase-like protein 5: MELRCGGLLFSSRFDSGNLAHVEKVESLSSDGEGVGGGASALTSGIASSPDYEFNVWTRPDCAETEFENGNRSWFYFSVRGGMPGKLIKINIMNMNKQSKLYSQGMAPFVRTLPTRPRWERIRDRPTFEMTETQFVLSFVHRFVEGRGATTFFAFCYPFSYSDCQELLNQLDQRFPENHPTHSSPLDTIYYHRELLCYSLDGLRVDLLTITSCHGLREDREPRLEQLFPDTSTPRPFRFAGKRIFFLSSRVHPGETPSSFVFNGFLDFILRPDDPRAQTLRRLFVFKLIPMLNPDGVVRGHYRTDSRGVNLNRQYLKPDAVLHPAIYGAKAVLLYHHVHSRLNSQSSSEHQPSSCLPPDAPVSDLEKANNLQNEAQCGHSADRHNAEAWKQTEPAEQKLNSVWIMPQQSAGLEESAPDTIPPKESGVAYYVDLHGHASKRGCFMYGNSFSDESTQVENMLYPKLISLNSAHFDFQGCNFSEKNMYARDRRDGQSKEGSGRVAIYKASGIIHSYTLECNYNTGRSVNSIPAACHDNGRASPPPPPAFPSRYTVELFEQVGRAMAIAALDMAECNPWPRIVLSEHSSLTNLRAWMLKHVRNSRGLSSTLNVGVNKKRGLRTPPKSHNGLPVSCSENTLSRARSFSTGTSAGGSSSSQQNSPQMKNSPSFPFHGSRPAGLPGLGSSTQKVTHRVLGPVREPRSQDRRRQQQPLNHRPAGSLAPSPAPTSSGPASSHKLGSCLLPDSFNIPGSSCSLLSSGDKPEAVMVIGKGLLGTGARMPCIKTRLQARPRLGRGSPPTRRGMKGSSGPTSPTPRTRESSELELGSCSATPGLPQARPPRPRSAPAFSPISCSLSDSPSWNCYSRGPLGQPEVCFVPKSPPLTVSPRV
deglutamylation of substrate, blot (FIG. 2C): the CCP5 enzyme deglutamylates NPM2
